# Experimental data taken from US20120164123.
# Legend:
# [1] = tested on: mono-ADP-ribosylated HNP-1
# [2] = tested on: human neutrophil peptide-1 (HNP-1)
# Sequence of human neutrophil peptide-1 (HNP-1) (chain, as listed by the source): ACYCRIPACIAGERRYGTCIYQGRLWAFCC
# Sequence of mono-ADP-ribosylated HNP-1 (chain, as listed by the source): as above
substance,measurement,setting,value
manganese-activated arginase,ornithine formation by arginase (amino acid analysis and MS),[1],Identification of the products by amino acid analysis and MS identified ornithine only in the reaction that contained free arginine
same,ornithine formation by arginase (amino acid analysis and MS),[2],Identification of the products by amino acid analysis and MS identified ornithine only in the reaction that contained free arginine
